{"source": "patent US6043072A", "about": "“Nucleic acids encoding Taxus geranylgeranyl diphosphate synthase, and methods of use” (Washington State University Research Foundation, priority 1998, dated 2000)", "proteins": {"B1": {"name": "T. canadensis GGPP synthase (Taxus canadensis) (protein)", "chain": "FDFNEYMKSKAVAVDAALDKAIPLEYPEKIHESMRYSLLAGGKRVRPALCIAACELVGGSQDLAMPTACAMEMIHTMSLIHDDLPCMDNDDFRRGKPTNHKVFGEDTAVLAGDALLSFAFEHIAVATSKTVPSDRTLRVISELGKTIGSQGLVGGQVVDITSEGDANVDLKTLEWIHIHKTAVLLECSVVSGGILGGATEDEIARIRRYARCVGLLFQVVDDILDVTKSSEELGKTAGKDLLTDKATYPKLMGLEKAKEFAAELATRAKEELSSFDQIKAAPLLGLADYIAFRQN"}}, "key": {"[1]": {"substrate": "C=C(C)CCO[P@@](=O)(O)OP(=O)(O)O", "experiment": "purified protein, by the assay type", "details": "other: double reciprocal plotting; remaining reactants at saturation"}, "[2]": {"substrate": "CC(C)=CCC/C(C)=C/CC/C(C)=C/CO[P@@](=O)(O)OP(=O)(O)O", "experiment": "purified protein, by the assay type", "details": "other: double reciprocal plotting; remaining reactants at saturation"}}}
{"protein": "B1", "values": [{"measurement": "Km", "setting": "[1]", "result": 7, "unit": "µM"}, {"measurement": "Km", "setting": "[2]", "result": 6, "unit": "µM"}]}
